Test results taken from PMC3229523, “Identification of Lactoferricin B Intracellular Targets Using an Escherichia coli Proteome Chip” (PLoS ONE, 2011).
Ends that are not written are not given here. * marks the point of attachment. Biotin = O=C1N[C@H]2[C@H](CS[C@H]2CCCCC(=O)*)N1

Assays:
Experiment in all cases: peptide or protein array; E. coli proteome chip: purified His-tagged proteins printed in duplicate on Fullmoon slides, blocked with 1% BSA; 10 nM N-terminal biotinylated LfcinB with 1% BSA, room temperature, 1 h; detected with DyLight 649-labeled streptavidin, ratio to DyLight 549-labeled anti-His antibody; ProCAT normalisation, local cut-off; triplicate chips
Details in all cases: both partners purified
YceC = target: T1, YceC (E. coli K-12, UniProt P0AA39 1-319)
T1 construct: YceC, E. coli K-12
T1 sequence (looked up): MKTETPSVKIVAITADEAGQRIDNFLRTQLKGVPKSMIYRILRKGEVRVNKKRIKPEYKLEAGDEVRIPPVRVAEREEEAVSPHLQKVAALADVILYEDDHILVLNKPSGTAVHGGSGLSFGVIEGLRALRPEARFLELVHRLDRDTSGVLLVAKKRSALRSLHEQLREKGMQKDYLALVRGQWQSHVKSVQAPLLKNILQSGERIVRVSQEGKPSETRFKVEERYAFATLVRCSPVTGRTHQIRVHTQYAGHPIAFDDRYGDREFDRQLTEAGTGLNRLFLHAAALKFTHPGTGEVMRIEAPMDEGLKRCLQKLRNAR

YihI = target: T2, YihI (E. coli K-12, UniProt P0A8H6 1-169)
T2 construct: YihI, E. coli K-12
T2 sequence (looked up): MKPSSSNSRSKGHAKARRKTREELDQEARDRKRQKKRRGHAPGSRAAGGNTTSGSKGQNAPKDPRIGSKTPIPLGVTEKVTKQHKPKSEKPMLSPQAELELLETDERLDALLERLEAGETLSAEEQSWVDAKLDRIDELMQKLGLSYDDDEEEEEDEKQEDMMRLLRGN

SoxR = target: T3, SoxR (E. coli K-12, UniProt P0ACS2 1-154)
T3 construct: SoxR, E. coli K-12
T3 sequence (looked up): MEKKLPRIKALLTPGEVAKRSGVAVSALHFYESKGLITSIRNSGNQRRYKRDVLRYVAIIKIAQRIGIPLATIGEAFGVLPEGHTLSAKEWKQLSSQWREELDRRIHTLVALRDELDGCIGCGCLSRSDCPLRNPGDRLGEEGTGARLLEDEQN

SrmB = target: T4, SrmB (E. coli K-12, UniProt P21507 1-444)
T4 construct: SrmB, E. coli K-12
T4 sequence (looked up): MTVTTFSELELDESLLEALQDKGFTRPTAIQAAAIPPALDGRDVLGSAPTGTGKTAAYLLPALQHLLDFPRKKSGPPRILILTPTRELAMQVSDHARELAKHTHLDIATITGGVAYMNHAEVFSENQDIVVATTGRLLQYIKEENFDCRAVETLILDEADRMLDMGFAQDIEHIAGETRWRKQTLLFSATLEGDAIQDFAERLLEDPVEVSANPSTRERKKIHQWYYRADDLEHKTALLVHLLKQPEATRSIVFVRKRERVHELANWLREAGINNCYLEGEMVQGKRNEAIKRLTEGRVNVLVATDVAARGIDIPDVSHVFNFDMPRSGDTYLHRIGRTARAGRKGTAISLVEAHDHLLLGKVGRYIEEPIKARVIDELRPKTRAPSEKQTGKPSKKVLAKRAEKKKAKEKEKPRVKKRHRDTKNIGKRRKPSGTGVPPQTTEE

adenylate cyclase CyaA = target: T5, adenylate cyclase CyaA (E. coli K-12, UniProt P00936 1-848)
T5 construct: CyaA, adenylate cyclase, E. coli K-12
T5 sequence (looked up): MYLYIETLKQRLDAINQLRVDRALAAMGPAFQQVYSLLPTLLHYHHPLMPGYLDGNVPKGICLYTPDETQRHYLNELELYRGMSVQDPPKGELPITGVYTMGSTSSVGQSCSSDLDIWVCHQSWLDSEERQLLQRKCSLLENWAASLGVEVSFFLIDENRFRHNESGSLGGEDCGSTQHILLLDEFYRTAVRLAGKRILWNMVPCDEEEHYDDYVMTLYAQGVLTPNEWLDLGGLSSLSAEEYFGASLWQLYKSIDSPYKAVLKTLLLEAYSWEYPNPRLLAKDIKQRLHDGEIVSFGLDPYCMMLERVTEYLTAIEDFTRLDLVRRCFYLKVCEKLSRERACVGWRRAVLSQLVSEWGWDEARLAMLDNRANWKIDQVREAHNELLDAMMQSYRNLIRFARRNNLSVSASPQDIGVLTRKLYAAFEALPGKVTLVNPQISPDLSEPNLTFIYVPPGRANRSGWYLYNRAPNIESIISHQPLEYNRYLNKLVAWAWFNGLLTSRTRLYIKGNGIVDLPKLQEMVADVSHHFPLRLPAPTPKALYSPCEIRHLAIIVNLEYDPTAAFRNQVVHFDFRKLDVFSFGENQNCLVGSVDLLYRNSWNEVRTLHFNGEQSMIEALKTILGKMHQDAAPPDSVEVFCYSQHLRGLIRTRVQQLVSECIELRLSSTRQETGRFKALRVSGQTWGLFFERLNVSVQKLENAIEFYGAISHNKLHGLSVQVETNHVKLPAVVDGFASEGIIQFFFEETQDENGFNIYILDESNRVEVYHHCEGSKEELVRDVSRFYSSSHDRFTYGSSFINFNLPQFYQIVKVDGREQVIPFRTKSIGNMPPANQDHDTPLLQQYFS

Measured: binding result

B1: N-terminal biotinylated Lactoferricin B (peptide, UniProt P24627 36-60, looked up)
peptide: Biotin-FKCRRWQWRMKKLGAPSITCVRRAF
modifications: ends and bridges not checked
notes: lactoferricin B (LfcinB), cationic antimicrobial peptide of 25 amino acids; also called biotinylated LfcinB; biotin-labeled LfcinB; source: bought: Kelowna Inc
binds: YceC | YihI | SoxR | SrmB | adenylate cyclase CyaA
